In patent publication US8492329B2, “Bioactive peptides and methods of using same” (Compugen Ltd., priority 2007, dated 2013):
No end group written: not given here.

Experiments:
LGR7 (RXFP1) = target: T1, LGR7 (RXFP1) (Homo sapiens, UniProt Q9HBX9); experiment: pCRE-β-gal reporter assay in Forskolin-treated CHO-K1 cells transiently transfected with LGR7; format: cell-based; set-up: expressed in transfected cells; host or cells: CHO-K1 (transient); conditions: 5 uM Forskolin, FIG. 7A-B
T1 sequence (Q9HBX9 1-757): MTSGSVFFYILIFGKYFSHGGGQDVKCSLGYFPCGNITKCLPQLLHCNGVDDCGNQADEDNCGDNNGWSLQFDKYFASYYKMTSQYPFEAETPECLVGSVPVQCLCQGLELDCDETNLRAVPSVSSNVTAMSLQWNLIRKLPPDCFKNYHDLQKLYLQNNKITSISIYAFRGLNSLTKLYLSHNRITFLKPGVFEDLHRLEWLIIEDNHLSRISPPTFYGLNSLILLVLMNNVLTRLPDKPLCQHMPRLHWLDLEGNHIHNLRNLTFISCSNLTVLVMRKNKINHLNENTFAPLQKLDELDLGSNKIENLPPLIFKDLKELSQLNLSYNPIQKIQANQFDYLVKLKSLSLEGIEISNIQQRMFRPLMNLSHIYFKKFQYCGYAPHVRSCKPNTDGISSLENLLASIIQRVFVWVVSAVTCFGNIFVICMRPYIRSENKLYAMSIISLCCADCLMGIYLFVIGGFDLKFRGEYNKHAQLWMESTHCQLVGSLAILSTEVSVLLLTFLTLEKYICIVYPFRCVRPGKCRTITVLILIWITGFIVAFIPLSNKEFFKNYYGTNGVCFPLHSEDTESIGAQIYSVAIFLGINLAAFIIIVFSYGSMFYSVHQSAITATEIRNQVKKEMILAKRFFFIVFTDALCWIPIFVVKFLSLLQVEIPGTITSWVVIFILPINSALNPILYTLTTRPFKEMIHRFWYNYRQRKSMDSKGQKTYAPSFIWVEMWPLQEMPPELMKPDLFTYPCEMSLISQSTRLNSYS
Procedure: The ability of P74C13V (P74) (SEQ ID NO: 10) and P59C13V (P59) and P59C13V-Amide (P59-Amide) (SEQ ID NO: 6 and 5 respectively) to activate LGR7 (RXFP1) and LGR8 (RXFP2) was further tested by testing the ability of these peptides to influence cAMP activity induced by 5 μM Forskolin in CHO-K1 cells transiently transfected with LGR7/pCRE-β-gal or LGR8/pCRE-β-gal as compared to H2 relaxin and INSL3 respectively.
LGR7 transfected CHO-K1 cells were treated with 5 uM of Forskolin to stimulate cAMP. The cells were then challenged with increasing doses of H2 Relaxin (as positive control), P74C13V (P74) (SEQ ID NO: 10), P59C13V with (P59-Amide) and without (P59) amide and P59S-Amide (P59S) (SEQ ID NO: 5, 6 and 1, respectively). […] The results are presented as a percentage of Forskolin activity at increasing concentrations of each peptide (represented in log [M]). The baseline for the experiment was the activity of Forskolin alone (100%). Each point represents three unrelated repeats for each experiment together with their standard error bars.

LGR8 (RXFP2) = LGR8 (RXFP2) (Homo sapiens, UniProt Q8WXD0); experiment: cAMP accumulation (Hit Hunter cAMP kit) in CHO-K1 cells transiently transfected with LGR8; format: cell-based; set-up: expressed in transfected cells; host or cells: CHO-K1 (transient); conditions: for cAMP inhibition (Gi) effect: 1 uM, LGR8 CHO-K1 cells pre-treated with 10 uM Forskolin, FIG. 1; for change in cAMP, dose response, higher concentrations: concentrations higher than 100 nM (up to 10 uM); for change in cAMP, dose response, higher concentrations / change in cAMP, dose response, lower concentrations: 20 uM Forskolin, FIG. 2; for change in cAMP, dose response, lower concentrations: concentrations lower than 100 nM
Procedure: The ability of Peptides to affect cAMP concentration was examined in CHO-K1 cells transiently transfected with LGR7 (RXFP1) or LGR8 (RXFP2). The experiment measured cAMP concentration in response to the addition of the peptides.
LGR7 (RXFP1) or LGR8 (RXFP2) were transiently transfected into CHO-K1 cells as follows: Cells (12 million) were plated into T75 flasks on the day preceding transfection. Cells were transfected with a GPCR DNA and Gα16 using a lipid technique according to the manufacturer's recommendation. Cells were transfected for 5 hours, then re-plated into 96-well dishes (60,000 cells per well) and grown overnight. Transfected cells were plated into 24 wells of a 96-well plate. Cells were pre-treated with 0.5 mM IBMX (stimulation buffer) for 10 min at 37° C., then stimulated with either a positive control (Relaxin 2) or a candidate peptide (for Gs functional examination), followed by stimulation or a preincubation with 10 μM forskolin (for Gi functional examination). Following a 20 minutes stimulation by incubation with 1 μM of either positive control or the tested peptides, either with or without forskolin, intracellular cAMP was assayed using the Hit Hunter cAMP kit (DiscoveRx Corporation) according to the manufacturer's recommended protocol. Data was converted to nmol of cAMP by running a standard cAMP curve.
Relaxin was used as a positive control. cAMP level was elevated by pre-treatment with forskolin.
The transfected CHO-K1 cells were treated with 10 uM of Forskolin (Applied cell sciences (ACS)) for 10 minutes and then challenged with 1 uM of H2 Relaxin (ACS) (as a positive control), 1 uM of Peptide P59C13V (P59) (SEQ ID NO: 6), and Peptide P74C13V (P74) (SEQ ID NO: 10).
A dose response effect of P59C13V (P59) and P74C13V (P74) on CHO-K1 cells transiently transfected with LGR8 (RXFP2) was further examined (Method as above). CHO-K1 cells transiently transfected with LGR8 (RXFP2) were treated with 20 uM of Forskolin for 10 minutes and then challenged with either INSL3 (as a positive control), P59C13V (SEQ ID NO: 6) or P74C13V (P74) (SEQ ID NO: 10) at increasing concentrations from 1 nM to 10 uM.

LGR8 (RXFP2), sequence (Q8WXD0 whole entry): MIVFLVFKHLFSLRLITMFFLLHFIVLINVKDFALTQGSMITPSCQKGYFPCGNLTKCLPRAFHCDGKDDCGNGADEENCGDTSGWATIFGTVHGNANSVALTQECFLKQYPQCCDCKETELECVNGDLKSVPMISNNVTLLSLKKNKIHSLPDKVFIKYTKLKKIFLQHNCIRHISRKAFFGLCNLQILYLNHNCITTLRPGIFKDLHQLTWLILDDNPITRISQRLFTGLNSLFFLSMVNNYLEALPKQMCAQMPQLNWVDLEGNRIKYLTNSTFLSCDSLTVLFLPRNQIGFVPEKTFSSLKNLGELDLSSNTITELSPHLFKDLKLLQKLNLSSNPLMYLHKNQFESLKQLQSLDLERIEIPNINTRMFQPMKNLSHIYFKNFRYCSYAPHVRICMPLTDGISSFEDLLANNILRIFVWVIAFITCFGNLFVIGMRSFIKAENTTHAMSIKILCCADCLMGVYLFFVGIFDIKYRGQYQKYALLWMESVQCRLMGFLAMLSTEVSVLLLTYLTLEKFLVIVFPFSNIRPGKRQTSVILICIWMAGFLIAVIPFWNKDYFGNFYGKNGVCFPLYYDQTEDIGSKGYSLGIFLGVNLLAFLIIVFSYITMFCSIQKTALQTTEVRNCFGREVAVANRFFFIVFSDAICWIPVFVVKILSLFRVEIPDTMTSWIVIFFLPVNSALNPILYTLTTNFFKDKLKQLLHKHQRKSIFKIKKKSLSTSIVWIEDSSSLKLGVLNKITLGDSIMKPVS

Substance | CRE activation pattern relative to Forskolin (LGR7 (RXFP1)) | cAMP inhibition (Gi) effect (LGR8 (RXFP2)) | change in cAMP, dose response, higher concentrations (LGR8 (RXFP2)) | change in cAMP, dose response, lower concentrations (LGR8 (RXFP2))
GQKGQVGPPGAAVRRAYAAFSV [Peptide P59C13V] | dual activation pattern effect | clear cAMP inhibition (Gi) effect | slight increase (Gs effect) | slight decrease in cAMP
GQKGQVGPPGAAVRRAYAAFSV-Amide (GQKGQVGPPGAAVRRAYAAFSV-NH2) [P59C13V-Amide] | slight activation pattern | – | – | –
GQKGQVGPPGAAVRRAYAAFSVGRRAYAAFSV-OH [Peptide P74C13V] | bell-shaped activation pattern | clear cAMP inhibition (Gi) effect | no effect | slight increase in cAMP
H2 Relaxin: H2 Relaxin (ACS), positive control, known ligand of LGR7 (RXFP1) [reference compound] | increased activation at higher concentrations | affected only the LGR7 (RXFP1) receptor | – | –
